Test results as given in patent publication US6555322B1, “α2-macroglobulin receptor as a receptor for CTGF” (FibroGen, Inc., priority 1999, dated 2003).

Legend:
[1] = system: CTGF receptor; test: Cell survey of CTGF cross-linked receptor complexes; type: binding
[2] = system: LRP; test: Cross-linking and equilibrium binding of 125I-rhCTGF on MEF1, PEA 10 and PEA 13 cells; set-up: species or system murine
Protocol: Three cell lines useful for a complete genetic system for the study of LRP function were generated by Willnow and Herz (1994, J. Cell Sci. 103:719-726) and obtained from the American Type Culture Collection (ATCC). The wild type line, MEF1, are fibroblasts originating from murine embryos and are homozygous positive for LRP expression. Fibroblasts that carry one or two copies of the defective LRP allele from hybrid embryos (see Herz et al.(1992) Cell. 71:411-21) were cultured in Pseudomonas exotoxin A (PEA) and the resistant clones, PEA 10 and PEA 13, which are heterozygous and homozygous, respectively, for LRP deficiency. Resistance to Pseudomonas exotoxin A by PEA 10 and PEA 13 cell lines, as well as sensitivity by MEF1 cells, was confirmed by growth in 30 ng/ml Pseudomonas exotoxin A after receipt from ATCC.
The three cell lines were cultured and plated for affinity binding with radiolabeled CTGF, cross-linking and gel analysis. Specifically, cross-linking of ^125I-rhCTGF to monolayers of MEF1, PEA 10 and PEA 13 cells were carried out as follows: Cells plated in 6-well dishes were incubated at 4° C. with 0.2 nM ^125I-rhCTGF in the presence (+) or absence (−) of a 200 fold excess of unlabeled rhCTGF in a binding buffer of PBS, 0.2% BSA, 0.02% sodium azide. After a 3 hour period of labeling, cells were cross-linked with 0.5 mM BS^3 for 15 minutes at room temperature. […]

[3] = system: MG63 cells; test: Internalization and degradation of 125I-rhCTGF during binding, with additives; type: cell-based, human; details: two hour incubation at 37° C.
[4] = target: T1, CTGF receptor on MG63 cells (Homo sapiens, UniProt Q07954); test: Specificity of CTGF binding in the presence of known growth factors, cross-linking; details: 200 pM 125I-CTGF, growth factor at 1 μg/ml
T1 construct: endogenous in cells; host or cells: MG63 human osteosarcoma cells
Protocol: The specificity of CTGF binding to the CTGF receptor was analyzed by performing an affinity binding experiment in the presence of a number of known growth factors. MG63 cells were labeled with 200 pM ^125I-CTGF in the presence of the indicated growth factor at 1 μg/ml. The cells were cross-linked with S-SMCC and the cell lysates were reduced prior to SDS-PAGE.

[5] = target: T2, LRP receptor (Mus musculus, UniProt Q91ZX7); test: Competitive binding and cross-linking of LRP ligands with 125I-CTGF on BMS-2 cells; set-up: species or system murine; details: 50 pM 125I-CTGF; CTGF 21.5 nM, BP5 201-218 50 μg/ml, LF 25 μg/ml, apo E 20 μg/ml, LpL 20 μg/ml
T2 construct: endogenous in cells; host or cells: BMS2 (BMS-2) murine bone marrow stromal cells
T2 sequence (Q91ZX7 20-4545): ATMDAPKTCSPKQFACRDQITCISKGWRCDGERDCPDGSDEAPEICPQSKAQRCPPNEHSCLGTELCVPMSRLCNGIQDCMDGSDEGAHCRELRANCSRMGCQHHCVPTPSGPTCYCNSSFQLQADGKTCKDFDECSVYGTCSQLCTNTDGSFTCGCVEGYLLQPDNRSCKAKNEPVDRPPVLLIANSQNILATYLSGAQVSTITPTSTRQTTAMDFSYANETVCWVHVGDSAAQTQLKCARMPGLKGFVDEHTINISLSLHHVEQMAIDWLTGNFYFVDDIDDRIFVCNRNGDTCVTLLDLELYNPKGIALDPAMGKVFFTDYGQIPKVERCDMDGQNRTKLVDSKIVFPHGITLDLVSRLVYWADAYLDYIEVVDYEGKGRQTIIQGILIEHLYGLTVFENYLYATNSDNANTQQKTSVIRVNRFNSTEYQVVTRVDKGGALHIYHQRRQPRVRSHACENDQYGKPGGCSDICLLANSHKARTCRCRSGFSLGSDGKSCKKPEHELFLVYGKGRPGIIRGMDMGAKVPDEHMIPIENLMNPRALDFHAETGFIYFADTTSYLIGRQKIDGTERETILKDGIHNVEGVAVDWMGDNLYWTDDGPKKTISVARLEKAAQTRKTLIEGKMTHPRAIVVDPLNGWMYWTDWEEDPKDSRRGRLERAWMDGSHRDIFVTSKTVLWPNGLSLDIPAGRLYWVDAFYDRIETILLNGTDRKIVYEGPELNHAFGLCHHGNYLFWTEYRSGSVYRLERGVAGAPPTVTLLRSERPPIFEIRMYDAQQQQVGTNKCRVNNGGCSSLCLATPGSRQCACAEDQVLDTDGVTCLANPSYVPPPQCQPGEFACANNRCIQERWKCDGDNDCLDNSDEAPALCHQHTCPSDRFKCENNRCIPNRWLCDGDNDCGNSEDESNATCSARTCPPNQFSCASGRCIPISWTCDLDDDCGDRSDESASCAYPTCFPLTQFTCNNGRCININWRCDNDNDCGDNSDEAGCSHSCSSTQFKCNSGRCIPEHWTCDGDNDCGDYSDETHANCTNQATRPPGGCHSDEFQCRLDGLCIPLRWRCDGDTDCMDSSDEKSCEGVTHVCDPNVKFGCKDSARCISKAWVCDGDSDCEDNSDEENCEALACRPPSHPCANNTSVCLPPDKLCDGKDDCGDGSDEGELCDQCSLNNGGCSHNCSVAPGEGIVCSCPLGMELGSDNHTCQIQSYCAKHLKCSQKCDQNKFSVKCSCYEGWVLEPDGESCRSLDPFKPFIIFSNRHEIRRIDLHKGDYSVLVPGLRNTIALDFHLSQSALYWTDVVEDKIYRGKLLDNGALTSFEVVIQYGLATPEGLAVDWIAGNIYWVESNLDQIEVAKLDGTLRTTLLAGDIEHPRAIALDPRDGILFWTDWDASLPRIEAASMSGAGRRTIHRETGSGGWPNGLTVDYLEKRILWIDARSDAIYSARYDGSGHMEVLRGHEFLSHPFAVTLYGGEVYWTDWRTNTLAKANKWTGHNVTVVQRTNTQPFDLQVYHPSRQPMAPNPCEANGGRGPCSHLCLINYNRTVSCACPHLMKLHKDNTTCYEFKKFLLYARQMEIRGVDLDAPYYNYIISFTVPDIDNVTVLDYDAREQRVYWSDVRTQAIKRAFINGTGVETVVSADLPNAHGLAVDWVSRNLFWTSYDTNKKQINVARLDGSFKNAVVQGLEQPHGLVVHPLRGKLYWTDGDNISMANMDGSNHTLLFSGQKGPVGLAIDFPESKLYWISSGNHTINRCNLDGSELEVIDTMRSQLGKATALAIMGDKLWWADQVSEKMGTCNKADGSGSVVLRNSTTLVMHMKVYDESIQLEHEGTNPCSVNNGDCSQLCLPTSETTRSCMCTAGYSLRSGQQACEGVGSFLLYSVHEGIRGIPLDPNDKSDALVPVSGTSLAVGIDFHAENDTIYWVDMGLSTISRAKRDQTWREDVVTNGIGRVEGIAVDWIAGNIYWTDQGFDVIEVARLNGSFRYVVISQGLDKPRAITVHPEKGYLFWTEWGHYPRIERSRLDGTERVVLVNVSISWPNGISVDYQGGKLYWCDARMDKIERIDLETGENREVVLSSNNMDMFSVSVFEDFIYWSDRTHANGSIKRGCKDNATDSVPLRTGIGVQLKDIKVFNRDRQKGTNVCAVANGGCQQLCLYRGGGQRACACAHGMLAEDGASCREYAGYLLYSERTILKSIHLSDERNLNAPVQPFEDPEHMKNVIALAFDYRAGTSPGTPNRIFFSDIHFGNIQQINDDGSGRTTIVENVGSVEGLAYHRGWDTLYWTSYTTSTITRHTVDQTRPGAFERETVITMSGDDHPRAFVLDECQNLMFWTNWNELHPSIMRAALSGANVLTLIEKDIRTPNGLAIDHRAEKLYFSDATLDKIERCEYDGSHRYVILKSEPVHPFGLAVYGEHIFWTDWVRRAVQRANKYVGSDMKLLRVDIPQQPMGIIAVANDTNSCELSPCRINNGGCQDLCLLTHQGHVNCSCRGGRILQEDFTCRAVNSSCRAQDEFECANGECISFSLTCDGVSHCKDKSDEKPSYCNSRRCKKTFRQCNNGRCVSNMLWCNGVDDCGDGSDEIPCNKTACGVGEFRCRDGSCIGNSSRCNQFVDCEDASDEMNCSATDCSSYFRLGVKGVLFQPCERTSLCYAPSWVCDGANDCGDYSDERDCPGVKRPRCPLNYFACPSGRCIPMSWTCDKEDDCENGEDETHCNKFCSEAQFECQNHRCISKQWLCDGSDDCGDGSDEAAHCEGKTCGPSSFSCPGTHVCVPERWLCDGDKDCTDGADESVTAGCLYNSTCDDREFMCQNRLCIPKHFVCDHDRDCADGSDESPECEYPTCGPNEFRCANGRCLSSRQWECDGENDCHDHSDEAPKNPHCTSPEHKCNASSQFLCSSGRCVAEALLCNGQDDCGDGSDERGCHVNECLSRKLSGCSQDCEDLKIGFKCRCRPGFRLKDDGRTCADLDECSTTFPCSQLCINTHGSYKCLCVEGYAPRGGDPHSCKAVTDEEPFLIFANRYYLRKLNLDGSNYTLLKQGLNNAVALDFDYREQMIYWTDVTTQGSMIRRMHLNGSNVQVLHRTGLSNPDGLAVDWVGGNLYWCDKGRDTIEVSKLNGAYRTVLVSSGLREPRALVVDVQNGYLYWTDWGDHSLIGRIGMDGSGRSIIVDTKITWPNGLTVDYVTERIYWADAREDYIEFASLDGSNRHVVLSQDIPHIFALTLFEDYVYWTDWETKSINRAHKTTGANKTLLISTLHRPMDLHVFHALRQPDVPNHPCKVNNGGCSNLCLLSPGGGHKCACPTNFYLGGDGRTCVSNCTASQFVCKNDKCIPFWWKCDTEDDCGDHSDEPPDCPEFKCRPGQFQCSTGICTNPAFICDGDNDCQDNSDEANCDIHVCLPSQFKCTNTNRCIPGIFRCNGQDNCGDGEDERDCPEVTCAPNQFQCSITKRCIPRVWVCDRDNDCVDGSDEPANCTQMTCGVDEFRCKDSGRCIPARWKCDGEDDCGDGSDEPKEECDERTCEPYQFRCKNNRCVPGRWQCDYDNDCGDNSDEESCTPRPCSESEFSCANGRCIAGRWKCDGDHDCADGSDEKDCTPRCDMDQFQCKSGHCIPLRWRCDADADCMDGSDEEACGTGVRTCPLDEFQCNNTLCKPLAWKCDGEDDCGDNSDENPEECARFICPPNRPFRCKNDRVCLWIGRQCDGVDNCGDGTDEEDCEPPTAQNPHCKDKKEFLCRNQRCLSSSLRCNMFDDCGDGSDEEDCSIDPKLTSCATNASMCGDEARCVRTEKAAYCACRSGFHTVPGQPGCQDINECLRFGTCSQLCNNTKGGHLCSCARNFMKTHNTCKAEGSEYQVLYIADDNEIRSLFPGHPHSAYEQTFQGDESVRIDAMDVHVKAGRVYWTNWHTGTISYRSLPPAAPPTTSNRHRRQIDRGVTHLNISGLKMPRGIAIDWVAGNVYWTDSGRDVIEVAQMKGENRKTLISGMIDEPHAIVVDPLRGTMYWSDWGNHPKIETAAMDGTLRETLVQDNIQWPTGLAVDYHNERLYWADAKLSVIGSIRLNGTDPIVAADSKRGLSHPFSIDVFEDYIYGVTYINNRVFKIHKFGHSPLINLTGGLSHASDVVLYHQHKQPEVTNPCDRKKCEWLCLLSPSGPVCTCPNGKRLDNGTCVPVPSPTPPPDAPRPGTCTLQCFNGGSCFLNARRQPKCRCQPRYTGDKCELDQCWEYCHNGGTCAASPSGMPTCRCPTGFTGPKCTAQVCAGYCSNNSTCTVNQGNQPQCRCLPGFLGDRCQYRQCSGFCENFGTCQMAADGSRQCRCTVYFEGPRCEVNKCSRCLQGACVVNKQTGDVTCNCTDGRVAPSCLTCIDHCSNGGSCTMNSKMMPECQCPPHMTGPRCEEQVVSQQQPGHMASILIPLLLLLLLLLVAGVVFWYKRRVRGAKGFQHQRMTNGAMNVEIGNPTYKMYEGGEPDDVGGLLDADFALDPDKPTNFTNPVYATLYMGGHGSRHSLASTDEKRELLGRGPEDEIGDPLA
Protocol: To examine whether ligands known to bind to LRP inhibit CTGF binding, BMS-2 cells were labeled with 50 pM ^125I-CTGF in the presence or absence of unlabeled ligand (CTGF: 21.5 nM; BP5^201-218: 50 μg/ml or […] (Campbell and Andress, 1997, Am. J. Physiol., 273:E1005-13); lactoferrin (LF): 25 μg/ml or 250 nM; apo E: 20 μg/ml or 574 nM; lipoprotein lipase (LpL): 20 μg/ml or 400 nM). The cells were cross-linked and the receptor complexes were solubilized, processed on SDS-PAGE and visualized by autoradiography.

[6] = system: MG63 cells; test: Internalization and degradation kinetics of 125I-CTGF with heparin or lactoferrin; type: cell-based, human
Protocol: Experiments were performed in which the internalization and degradation kinetics of CTGF were followed in the presence or absence of a known LRP ligand, lactoferrin. Kinetics were followed in the presence or absence of 3 μg/ml heparin or lactoferrin. ^125I-CTGF was bound to MG63 cells at 4° C. and free CTGF was removed by washing the cells. Fresh medium was placed on the cells, and the cells were transferred to 37° C. At each time point, the medium was removed and TCA precipitated. Degraded ^125I-CTGF was quantified by measuring the cpm in the non-precipitable fraction (see FIG. 17). In parallel experiments, ^125I-CTGF was bound to MG63 cells at 4° C. and free CTGF was removed by washing the cells. Fresh medium was placed on the cells, and they were transferred to 37° C. At each time point, the cell layer was removed by extensive trypsinization at 4° C. The cells were centrifuged and the cpm associated with the pellet, the internalized fraction, was determined (see FIG. 18).

[7] = system: MG63 cells; test: Internalization and degradation time course of 125I-rhCTGF after TGF-β treatment; type: cell-based, human
Protocol: To examine whether LRP function was altered by TGF-β treatment, the following experiments were conducted. MG63 cells were plated at 2.5×10^4 cells/cm^2 in MEM with 10% FBS. The following day, the cells were rinsed with MEM containing 0.5% MEM and incubated in this low serum medium with or without 20 ng/ml of TGF-β2. At 24 or 48 hours the cells were rinsed twice with binding medium, then incubated at 4° C. for 3 hours with 0.2 nM ^125I-rhCTGF. After incubation, the cells were rinsed 4 times with binding buffer at 4° C., then fresh binding buffer pre-warmed to 37° C. was added and the cells continued incubation at 37° C. At time points of 0, 15, 30, 60, 120 and 180 min, the media were collected and processed by precipitation with 10% TCA. The cell layer was processed by trypsination of the cells. Pellets and supernatants were separated and counted for each point.

[8] = system: MG63 cells; test: Protein synthesis in the presence of PEA as measure of LRP internalization activity; type: cell-based, human; details: 20 ng/ml TGF-β for 48 hours, 14C-amino acid pulse
Protocol: Pseudomonas exotoxin A (PEA) is a ligand for LRP, and following internalization is degraded in lysosomes. One of the degradation products contains PEA domain III, which promotes ADP-ribosylation of elongation factor-2, inhibiting protein synthesis. Protein synthesis in the presence of various concentrations of PEA was used to measure the internalization activity of LRP. To test whether TGF-β altered LRP activity for PEA internalization, MG63 cells were treated with 20 ng/ml TGF-β for 48 hours, then treated with various concentrations of PEA. After 2 hours, protein synthesis was monitored with an overnight pulse of ^14C-amino acids. The cell layers were extracted with 10% trichloroacetic acid and counted.

[9] = target: T3, high Mr CTGF binding protein on BMS-2 cells (Mus musculus, UniProt Q91ZX7); test: Binding analysis of 125I-CTGF competition with LRP ligands on BMS-2 cells; set-up: species or system murine; details: 0.1 nM 125I-CTGF
T3 construct: endogenous in cells; host or cells: BMS2 (BMS-2) murine bone marrow stromal cells
T3 sequence (Q91ZX7 20-4545): as above
Protocol: BMS-2 cells were incubated with 0.1 nM ^125I-CTGF in the presence of unlabeled CTGF, recombinant human apoE, low density lipoprotein purified from human plasma (LDL), or lipoprotein lipase purified from bovine milk (LpL).

[10] = 20 ng/ml TGF-β2, 48 hour exposure

B1: connective tissue growth factor (protein)
chain: QNCSGPCRCPDEPAPRCPAGVSLVLDGCGCCRVCAKQLGELCTERDPCDPHKGLFCHFGSPANRKIGVCTAKDGAPCIFGGTVYRSGESFQSSCKYQCTCLDGAVGCMPLCSMDVRLPSPDCPFPRRVKLPGKCCEEWVCDEPKDQTVVGPALAAYRLEDTFGPDPTMIRANCLVQTTEWSACSKTCGMGISTRVTNDNASCRLEKQSRLCMVRPCEADLEENIKKGKKCIRTPKISKPIKFELSGCTSMKTYRAKFCGVCTDGRCCTPHRTTTLPVEFKCPDGEVMKKNMMFIKTCACHYNCPGDNDIFESLYYRKMYGDMA
notes: recombinant human CTGF produced in baculovirus-infected Hi 5 insect cells, also used radioiodinated
- cross-linking of CTGF to CHO and MLEC cells [1]: did not appear to cross-link
- cross-linked signal co-migrating with the complex, PEA 13 cells ([2]; 0.2 nM 125I-rhCTGF, BS3, overexposed autoradiograph): no signal
- CTGF binding on PEA 13 cells ([2]; PEA 13, homozygous LRP deficient): no binding was detected
- CTGF specifically internalized, control cells ([3]; 0.2 nM 125I-rhCTGF, no TGF-β): approximately 260 fmoles CTGF/mg cell protein
- CTGF degraded, control cells ([3]; no TGF-β): About 1000 fmoles/mg cell protein
- competition for CTGF binding to the cell surface [4]: effectively competed
- competing the binding to the LRP receptor [5]: most effective
- time of internalization of CTGF ([6]; 37° C. after binding at 4° C.): ≤ 30 min

B2: lactoferrin (protein, UniProt P02788 20-710, looked up)
Lactotransferrin: GRRRSVQWCAVSQPEATKCFQWQRNMRKVRGPPVSCIKRDSPIQCIQAIAENRADAVTLDGGFIYEAGLAPYKLRPVAAEVYGTERQPRTHYYAVAVVKKGGSFQLNELQGLKSCHTGLRRTAGWNVPIGTLRPFLNWTGPPEPIEAAVARFFSASCVPGADKGQFPNLCRLCAGTGENKCAFSSQEPYFSYSGAFKCLRDGAGDVAFIRESTVFEDLSDEAERDEYELLCPDNTRKPVDKFKDCHLARVPSHAVVARSVNGKEDAIWNLLRQAQEKFGKDKSPKFQLFGSPSGQKDLLFKDSAIGFSRVPPRIDSGLYLGSGYFTAIQNLRKSEEEVAARRARVVWCAVGEQELRKCNQWSGLSEGSVTCSSASTTEDCIALVLKGEADAMSLDGGYVYTAGKCGLVPVLAENYKSQQSSDPDPNCVDRPVEGYLAVAVVRRSDTSLTWNSVKGKKSCHTAVDRTAGWNIPMGLLFNQTGSCKFDEYFSQSCAPGSDPRSNLCALCIGDEQGENKCVPNSNERYYGYTGAFRCLAENAGDVAFVKDVTVLQNTDGNNNEAWAKDLKLADFALLCLDGKRKPVTEARSCHLAMAPNHAVVSRMDKVERLKQVLLHQQAKFGRNGSDCPDKFCLFQSETKNLLFNDNTECLARLHGKTTYEKYLGPQYVAGITNLKKCSTSPLLEACEFLRK
notes: known LRP ligand
- competing the binding to the LRP receptor [5]: very effective in competing
- rate of degradation of CTGF ([6]; 3 μg/ml heparin or lactoferrin): reduced the rate
- rate of internalization of CTGF ([6]; 3 μg/ml heparin or lactoferrin): reduced the rate

B3: transforming growth factor beta (protein)
chain: ALDAAYCFRNVQDNCCLRPLYIDFKRDLGWKWIHEPKGYNANFCAGACPYLWSSDTQHSRVLSLYNTINPEASASPCCVSQDLEPLTILYYIGKTPKIEQLSNMIVKSCKCS
notes: growth factor, 20 ng/ml TGF-β2 used to treat MG63 cells
- CTGF degraded, TGF-β treated cells ([3]; 48 hours post-TGF-β exposure): 400 fmol
- CTGF specifically internalized, TGF-β treated cells ([3]; 48 hours post-TGF-β exposure): about 150 fmoles
- degradation of 125I-CTGF, control cells relative to TGF-β treated cells [7, 10]: at least 3 fold
- internalization of CTGF in TGF-β treated cells [7, 10]: more modest internalization
- internalization and degradation of CTGF by CTGF receptor (LRP), lower in TGF-β treated cells ([7]; TGF-β treated versus control cells): about 3 fold
- sensitivity to PEA, TGF-β treated cells less sensitive than control cells [8]: about 3 fold

B4: lipoprotein lipase (protein)
chain: DRITGGKDFRDIESKFALRTPEDTAEDTCHLIPGVTESVANCHFNHSSKTFVVIHGWTVTGMYESWVPKLVAALYKREPDSNVIVVDWLSRAQQHYPVSAGYTKLVGQDVAKFMNWMADEFNYPLGNVHLLGYSLGAHAAGIAGSLTNKKVNRITGLDPAGPNFEYAEAPSRLSPDDADFVDVLHTFTRGSPGRSIGIQKPVGHVDIYPNGGTFQPGCNIGEALRVIAERGLGDVDQLVKCSHERSVHLFIDSLLNEENPSKAYRCNSKEAFEKGLCLSCRKNRCNNMGYEINKVRAKRSSKMYLKTRSQMPYKVFHYQVKIHFSGTESNTYTNQAFEISLYGTVAESENIPFTLPEVSTNKTYSFLLYTEVDIGELLMLKLKWISDSYFSWSNWWSSPGFDIGKIRVKAGETQKKVIFCSREKMSYLQKGKSPVIFVKCHDKSLNRKSG
notes: lipoprotein lipase purified from bovine milk, known LRP ligand
- competition with 125I-CTGF [9]: competed
- competing the binding to the LRP receptor [5]: very effective in competing
